Numbering of substitutions follows the chain as printed.
T1: CD73-ND-T183A (human, UniProt P21589 27-317)
T1 construct: Alanine mutant of CD73-ND
T1 sequence: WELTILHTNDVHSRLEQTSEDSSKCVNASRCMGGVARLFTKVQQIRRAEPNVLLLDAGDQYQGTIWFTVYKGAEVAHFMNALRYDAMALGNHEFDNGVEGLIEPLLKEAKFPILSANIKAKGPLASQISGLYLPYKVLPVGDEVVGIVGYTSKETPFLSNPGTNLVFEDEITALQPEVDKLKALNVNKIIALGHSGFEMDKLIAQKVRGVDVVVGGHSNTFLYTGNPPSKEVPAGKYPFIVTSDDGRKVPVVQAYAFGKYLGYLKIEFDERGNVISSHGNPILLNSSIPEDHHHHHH

T2: CD73-ND-K182A (human, UniProt P21589 27-317)
T2 construct: Alanine mutant of CD73-ND
T2 sequence: T1 sequence with K182A, A183T

T3: CD73-ND-N185A (human, UniProt P21589 27-317)
T3 construct: Alanine mutant of CD73-ND
T3 sequence: T1 sequence with A183T, N185A

T4: CD73-ND-E143A (human, UniProt P21589 27-317)
T4 construct: Alanine mutant of CD73-ND
T4 sequence: T1 sequence with E143A, A183T

T5: CD73-ND-N187A (human, UniProt P21589 27-317)
T5 construct: Alanine mutant of CD73-ND
T5 sequence: T1 sequence with A183T, N187A

T6: CD73-CD-his (human, UniProt P21589 337-549)
T6 construct: it fits residue S549 of P21589 (27+522)
T6 sequence: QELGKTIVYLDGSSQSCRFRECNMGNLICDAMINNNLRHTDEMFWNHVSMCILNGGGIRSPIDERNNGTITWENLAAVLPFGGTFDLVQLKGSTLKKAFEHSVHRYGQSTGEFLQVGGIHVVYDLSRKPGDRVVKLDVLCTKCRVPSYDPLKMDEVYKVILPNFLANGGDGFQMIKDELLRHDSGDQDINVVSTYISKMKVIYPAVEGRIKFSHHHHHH

B1: 48A11-HuV33 (antibody, human IgG4, V domains shown)
VH: QVQLVQSGAEVKKPGASVKVSCKASGYTFTSYWMHWVRQAPGQGLEWIGEINPSIGRTNYNEKFKSRVTLTRDTSTSTAYMELSSLRSEDTAVYYCARRVYGTMDYWGQGTLVTVSS
VL: DIQMTQSPSSLSASVGDRVTITCKASQDINSYLSWFQQKPGKSPKLLIYRANIWVDGVPSRFSGSGSGQDYTFTISSLQPEDIATYYCLQYDELYTFGQGTKVEIK
notes: Humanized
B2: 56B10-HuV31 (antibody, human IgG4, V domains shown)
VH: QVQLQQSGAEVKKPGASVKVSCKASGYTFTRYYIYWVRQRPGQGLEWIGWIYPGNFNTKYNEKFKGRATLTADTSASTAYMELSSLTSEDTAVYYCARDVYDYAGFAYWGQGTLVTVSS
VL: DIQLTQSPSFLSASVGDRVTITCKASQGVATAVAWYQQKPGQSPKLLIYWASTRHTGVPDRFSGSGSGTEFTLTISSLQPEDFATYYCQQYSSYPWTFGQGTKVEIK
notes: Humanized

Columns and labels:
CD73-ND-T183A = target: T1, CD73-ND-T183A; assay: ELISA; decline multiple of EC50 against CD73-ND
Description: (§1) The ELISA plates were coated with SA protein diluted to 1.5 μg/mL in coating buffer (50 mM carbonate coating buffer, pH 9.6) and incubated overnight at 4° C. The supernatant was discarded, and the plates were washed three times with PBST. Then, 5% skimmed milk powder prepared with PBS was added for blocking and the plates were incubated for 2 h at 37° C. After washing the plates once with PBST, CD73-biotin protein (prepared by biotinylating CD73-His protein according to the EZ-Link NHS-Biotin Reagent instructions) was diluted to 0.5 μg/mL and added at 100 μL/well for incubation at room temperature for 1 h. The plates were washed three times with PBST, and the prepared murine-derived monoclonal antibodies against human CD73 were serially diluted with 1% BSA buffer prepared with PBST and added to the ELISA plates at 100 μl/well. The plates were incubated at 37° C. for 1 h. After washing the plates three times with PBST, HRP-labeled goat anti-mouse IgG secondary antibody was added and the plates were incubated for 30 min at 37° C. After washing the plates three times with PBST, the residual droplets were patted dry on absorbent paper as much as possible. Then, 100 μl of TMB color developing solution was added to each well, and the plates were incubated in the dark at room temperature for 5 min for color development. Subsequently, 50 μl of 2M H₂SO₄ stop solution was added to each well to terminate the substrate reaction. The OD values were read at 450 nm using a multimode microplate reader to analyze the binding ability of the tested antibodies to the target antigen human CD73-His.
(§2) Referring to the experimental method in Example 3, the affinity of 48A11-HuV33 for various mutant proteins of CD73-ND was determined. The SA protein was diluted to 1 μg/mL for coating the ELISA plates, and the biotinylated CD73 protein (CD73-biotin) was used at a concentration of 0.1 μg/mL.

CD73-ND-K182A = target: T2, CD73-ND-K182A; assay: ELISA; decline multiple of EC50 against CD73-ND
Description: as §1, §2

CD73-ND-N185A = target: T3, CD73-ND-N185A; assay: ELISA; decline multiple of EC50 against CD73-ND
Description: as §1, §2

CD73-ND-E143A = target: T4, CD73-ND-E143A; assay: ELISA; decline multiple of EC50 against CD73-ND
Description: as §1, §2

CD73-ND-N187A = target: T5, CD73-ND-N187A; assay: ELISA; decline multiple of EC50 against CD73-ND
Description: as §1, §2

CD73-CD-his = target: T6, CD73-CD-his; assay: ELISA as in Example 3, antigen CD73-CD-his, antibody titrated, absorbance 450 nm

Binder	Ratio(EC50) (CD73-ND-T183A) [fold]	Ratio(EC50) (CD73-ND-K182A) [fold]	Ratio(EC50) (CD73-ND-N185A) [fold]	Ratio(EC50) (CD73-ND-E143A) [fold]	Ratio(EC50) (CD73-ND-N187A) [fold]	binding result (CD73-CD-his)
B1	1.4	1	1.6	1.4	0.9	–
B2	–	–	–	–	–	no binding (tested: 10 nM)

Source: US20250066499A1 (SUNSHINE GUOJIAN PHARMACEUTICAL SHANGHAI, published 2025)
